System: H460 cells
Assay: Efficacy of M830 in the H460 non-small cell lung carcinoma xenograft model
Format: in vivo, mouse
Settings: combination partner Paclitaxel
Description: Animals were monitored for regression responses.
The statistical tests were not adjusted for multiple comparisons.
Cultured H460 cells were harvested during exponential growth and resuspended in phosphate buffered saline at a concentration of 1×10^8 cells/mL. 1.0×10^7 tumor cells were injected subcutaneously into the flank of athymic nude mice. Animals were euthanized when tumors reached the pre-determined volume endpoint of 2000 mm^3 or on the final day (Day 88), whichever came first.

B1: M830: TEM8 monoclonal antibody (hIgG1), VH SEQ ID NO:5, VL SEQ ID NO:6 (antibody, V domains shown)
VH: EVQLVESGGGVVQPGRSVRLSCAASGFTFSTYTMHWVRQAPGKGLEWVAIISNDGSNKYYADPVRGRFTISRDNSKNTLYLQMNSLRAEDTAVYYCVRGSSWYRGNWFDPWGQGTLVTVSS
VL: DIQMTQSPSSLSASVGDRVTIACRASQTISRYLNWYQQKPGKAPKLLIYAASSLQSGVSSRFSGSGSGTEFTLTISSLQPEDFATYFCQQTYSPPITFGQGTRLEIKR
modifications: TEM830 mAb VH; TEM830 mAb VL
  regression (in % Tumor Reduction vs. Vehicle at Day 21 cell): −61%

From patent publication US11033620B2, “Combination therapies targeting tumor-associated stroma or tumor cells and microtubules” (BIOMED VALLEY DISCOVERIES, INC., priority 2014, dated 2021)
